Assay results as given in the nanobody polyreactivity screen of Harvey et al. (2022).

Test: yeast display, Sf9 membrane polyspecificity reagent, FACS + sequencing; frameworks hold sequencing errors
Method in brief: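 Genes from sorted yeast were amplified by colony PCR, read by MiSeq 2 × 250 sequencing and filtered on CDR length. These cells carried a synthetic nanobody library in Saccharomyces cerevisiae BJ5465 and were sorted by FACS into low and high (top ~1%) gates on anti-HA and streptavidin fluorescence. Polyreactivity is labelled according to the gate of origin.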

| Sequence | polyreactivity (PSR sort gate) |
| --- | --- |
| QVQLVESGGGLVQAGGSLRLSCAASGRIFPKYTMGWYRQAPGKERELVASINSSGRTTYADSVKGRFTITRDNAKNTVYLQMNSLKPEDTAVYYCAKRVFSARGYGYWGQGTQVTVSS | low polyreactivity |
| QVQLVESGGGLVQAGGSLRLSCAASGSTFPFYDMGWYRQAPGKERELVTAIRSGGSTYADSVKGRFTISRDNAKNTVYLQMNSLKPVDTAVYYCAKRCPSIRYSRYRVKYDYWGQGTQVTVSS | low polyreactivity |
| QVQLVESGGGLVQAGGSLSLICADTGLTFRVYAMGWYRQAPGKERELVAAISSRGGSTYYADSVKGRFTISRDNAKYTVLLQMNSLKPEDTAVYDCYARGQGGYWGQGTQVTVSS | high polyreactivity |
| QVQLVESGGGLVQAGGSLRLSCAASGSTFYRNARAWYRQAPGKERELVAGISYGGGSTYYADSVKGRFTISRDNAKNTVYLQMNSLKPEDTAVYYCNAVWVKRHYYYWGQGSQVTVSS | low polyreactivity |
| QVQLVESGGGLVQAGGSLRLSCAASGSIFADYTMGWYRQAPGKERELVAPINYRDGGTSYADSVKGRFTISRDKANNTVYLQMNSLKPEDTAVYYCTKQVDLSGQWDYWYGYYTYDYWGPGTQVTVSS | low polyreactivity |
| QVQLVESGGGLVQAGGSLRLSCAASGLTFGSNAMGWYRQAPGKERELVAAITSSGGRTYYADSVKGRFTISRDNAKNTVYLQMNSLKPEVTAVYYCAAVYQILLYFPGRYDYWGQGTQVTVSS | low polyreactivity |
| QVQLVESGGGLVQAGGSLRLSSAASGRTFFYYAMGWYRQAPGKERELVAVISGSGARTYYADSVKGRFTISRDNAKYTVYLQMNSLKPEDTAVYYWIKVFARSRSSRYQAYDYWGQGTQVTVSS | high polyreactivity |
| QVQLVESGGRLVQAGGRLRLSCAASGSISASYAMGWYRQAPGKERELVAAITSGGSTYYADSVKGRFTISRDNAKYTVYLQMNSLKPEDTAVYYCAKRPKRTYYPHIGYDYWGLGTQVTVSS | low polyreactivity |
| QVQLVESGGCLVQAGGSLRLSCAASGRIFRDKAMGWYRQAPGKEREFVARITISTGTTYYADSVKGRFTISRDNAKNTGYLQKNSLKPADTAVYYCAALYTDSYLTSPVSYRYDYWGQGTQVSVSS | low polyreactivity |
| QVQLVESGGGLVQAGRSLRLNCAASGLTFYKYAMGWYRQAPGKERELVAAISYRGGSTYYADSVKGRFTISRDNAKNTVSLQLNSLKPEVTAVYYCAAGYPYGGDYWGQGTQVTVSS | high polyreactivity |
| QVQLVESGGGLVQAGGSLRLSCAASGITFQYYAMGWYRQAPGKERELVAAITSSGVSTYYADSVKGRFTISRDNAKNTVYLQMNSLKPEDTAVYYCNTVVRGWSSSAYDYWGQGTQVTVSS | low polyreactivity |
| QVQLVESGGGLVQAGGSLRLSCAASGRTFGYYAMGWYRPAPGKERELVAAISSGGRTYYADSVKGRFTISRDNAKNTVYLQMNSLKPEDTAVYYCNAASLVAYLARLGRDYWGQGTQVTVSS | low polyreactivity |
| QVQLVESGGGLVQAGGSLRLSCASSGSIFTCYTMGWYRQAPGKEMELVAAISQTGGRTYYADSVKVRFTISRDNAKNTVYLQMNSLKAEDTAVYYCAARSKRLAHDYWGQGTQVTVSS | high polyreactivity |
| QVQLVESGGGLVQAGGSLRFSCAASGSILSKNAMGWYRQAPGKERELVAAISSGGSTYYADSVKGRFTISRDKAKNTVYLQLNSLKPEDTAVYYCATYCTSVAYHLYYWGQGTQVTVSS | low polyreactivity |
| QVQLVESGGGLVQAGGSLRLSCAASGRIFRGYAMGWYRQAPGKERELVAAISSGVSTNYADSVKGRFTISRDNAKNTVYLQKNSLKPVDTAVYYCAAYFYSPYGTAGKYRRRYNYWGQGTQVTVSS | high polyreactivity |
| QVQLVESGGGLVQAGGSLRLSCADSGSIFGYYAMGRYRQAPGKERELVAAISDGGTITYYADSVKGRFTISRDNAKNTVYLQMNSLKPEDTAVYYCAARSPPRYYEHSYYYWGQGTQETVSS | high polyreactivity |
| QVQLVVSGGGLVQAGGSLRLSCAASGSTFVSNAMGWYRQAPGQERELVAAITSGGSTDYADSVKGRCTISRDNAKNTVYVQMNSLQPEDTAVYYGAADPEWHSDQPRVGYVGYNYWGQGTQVNVSS | low polyreactivity |
